Results published in patent US20130316374A1, “BREAST CANCER DIAGNOSTICS” (IMBA - INSTITUT FUR MOLEKULARE BIOTECHNOLOGIE GMBH, priority 2010, published 2013).

System: primary mouse mammary gland epithelial cells (MECs)
Assay: Western blotting of RANKL/RANK downstream signaling in MECs
Format: cell-based
Conditions: RANKL stimulation (1 μg/ml)
Experimental: a, Western blotting for phosphorylated (P) IKKα, total IKKα, phosphorylated (P) p65 NFκB, total p65 NFκB, phosphorylated (P) IκBα, and total IκBα in isolated primary mouse mammary gland epithelial cells (MECs) in response to RANKL stimulation (1 μg/ml). […] is shown as loading control. b, Western blotting for IKKα, IKKβ, IKKγ, phosphorylated (P) p65 NFκB, total p65 NFκB, phosphorylated (P) IκBα, and total IκBα in pooled late stage mammary adenocarconimas (n=4 for each lane) that developed in control, RANK^Δmam, and IKKα^Δmam females. β-actin is shown as loading control c, Expression of RANK, CyclinD1, and p21 mRNA in late stage mammary adenocacinomas that developed in control, RANK^Δmam, and IKKα^Δmam females. Expression was determined by qRT-PCR. Data are mean values+/−sem. n=4 per group. d, Soft-Agar Colony Formation Assay. Growth of human SKBR3 breast cancer cells in soft agar in response to stimulation with RANKL (1 μg/ml) or EGF (100 ng/ml). […] Apoptosis was detected by immunostaining for active Caspase 3. f, Apoptotic nuclei of epithelial cells (arrows) are shown for representative mammary gland sections. Magnifications ×40. g, Quantification of mammary epithelial apoptosis. A minimum of 5000 nuclei was counted for each mouse. […]

B1: RANKL: Receptor Activator of NF-κB Ligand; recombinant murine RANKL used for stimulation (protein, UniProt O35235 139-316, looked up)
Tumor necrosis factor ligand …: FSGAPAMMEGSWLDVAQRGKPEAQPFAHLTINAASIPSGSHKVTLSSWYHDRGWAKISNMTLSNGKLRVNQDGFYYLYANICFRHHETSGSVPTDYLQLMVYVVKTSIKIPSSHNLMKGGSTKNWSGNSEFHFYSINVGGFFKLRAGEEISIQVSNPSLLDPDQDATYFGAFKVQDID
p65 NFκB and IκBα phosphorylation: resulted in p65 NFκB and IκBα phosphorylation | phosphorylation of p38-MAPKs and ERK: triggered phosphorylation of p38-MAPKs and ERK
